Numbered stars: 1 amine (or outer) side, 2 acyl side, 3 side chain; on linkers, the order of the positions; unused ones are H or OH. Square brackets hold non-standard residues; d marks the D form. Side chains are listed from the residue outwards. Ends that are not written are not given here. * marks the point of attachment. γGlu = O=C(O)[C@H](CCC(=O)[*:2])N[*:1]; Palmitoyl = CCCCCCCCCCCCCCCC(=O)*; Aib = CC(C)(N)C(=O)O
B1: SEQ ID NO: 7 (peptide)
peptide: H[Aib]HGTFTSDLSKLK([γGlu-γGlu-Palmitoyl])EEQRQKEFIEWLKA[dA]GHPS[Aib]KPPPK-NH2
modifications: N-terminus assumed
SMILES: CCCCCCCCCCCCCCCC(=O)N[C@@H](CCC(=O)N[C@@H](CCC(=O)NCCCC[C@H](NC(=O)[C@H](CC(C)C)NC(=O)[C@H](CCCCN)NC(=O)[C@H](CO)NC(=O)[C@H](CC(C)C)NC(=O)[C@H](CC(=O)O)NC(=O)[C@H](CO)NC(=O)[C@@H](NC(=O)[C@H](Cc1ccccc1)NC(=O)[C@@H](NC(=O)CNC(=O)[C@H](Cc1c[nH]cn1)NC(=O)C(C)(C)NC(=O)[C@@H](N)Cc1c[nH]cn1)[C@@H](C)O)[C@@H](C)O)C(=O)N[C@@H](CCC(=O)O)C(=O)N[C@@H](CCC(=O)O)C(=O)N[C@@H](CCC(N)=O)C(=O)N[C@@H](CCCNC(=N)N)C(=O)N[C@@H](CCC(N)=O)C(=O)N[C@@H](CCCCN)C(=O)N[C@@H](CCC(=O)O)C(=O)N[C@@H](Cc1ccccc1)C(=O)N[C@H](C(=O)N[C@@H](CCC(=O)O)C(=O)N[C@@H](Cc1c[nH]c2ccccc12)C(=O)N[C@@H](CC(C)C)C(=O)N[C@@H](CCCCN)C(=O)N[C@@H](C)C(=O)N[C@H](C)C(=O)NCC(=O)N[C@@H](Cc1c[nH]cn1)C(=O)N1CCC[C@H]1C(=O)N[C@@H](CO)C(=O)NC(C)(C)C(=O)N[C@@H](CCCCN)C(=O)N1CCC[C@H]1C(=O)N1CCC[C@H]1C(=O)N1CCC[C@H]1C(=O)N[C@@H](CCCCN)C(N)=O)[C@@H](C)CC)C(=O)O)C(=O)O
B2: SEQ ID NO: 10 (peptide)
peptide: H[Aib]HGTFTSDLSKLK([γGlu-γGlu-Palmitoyl])EEQRQ[Aib]EFIEWLKAGGPPS[Aib]KPPPK-NH2
modifications: N-terminus assumed
SMILES: CCCCCCCCCCCCCCCC(=O)N[C@@H](CCC(=O)N[C@@H](CCC(=O)NCCCC[C@H](NC(=O)[C@H](CC(C)C)NC(=O)[C@H](CCCCN)NC(=O)[C@H](CO)NC(=O)[C@H](CC(C)C)NC(=O)[C@H](CC(=O)O)NC(=O)[C@H](CO)NC(=O)[C@@H](NC(=O)[C@H](Cc1ccccc1)NC(=O)[C@@H](NC(=O)CNC(=O)[C@H](Cc1c[nH]cn1)NC(=O)C(C)(C)NC(=O)[C@@H](N)Cc1c[nH]cn1)[C@@H](C)O)[C@@H](C)O)C(=O)N[C@@H](CCC(=O)O)C(=O)N[C@@H](CCC(=O)O)C(=O)N[C@@H](CCC(N)=O)C(=O)N[C@@H](CCCNC(=N)N)C(=O)N[C@@H](CCC(N)=O)C(=O)NC(C)(C)C(=O)N[C@@H](CCC(=O)O)C(=O)N[C@@H](Cc1ccccc1)C(=O)N[C@H](C(=O)N[C@@H](CCC(=O)O)C(=O)N[C@@H](Cc1c[nH]c2ccccc12)C(=O)N[C@@H](CC(C)C)C(=O)N[C@@H](CCCCN)C(=O)N[C@@H](C)C(=O)NCC(=O)NCC(=O)N1CCC[C@H]1C(=O)N1CCC[C@H]1C(=O)N[C@@H](CO)C(=O)NC(C)(C)C(=O)N[C@@H](CCCCN)C(=O)N1CCC[C@H]1C(=O)N1CCC[C@H]1C(=O)N1CCC[C@H]1C(=O)N[C@@H](CCCCN)C(N)=O)[C@@H](C)CC)C(=O)O)C(=O)O
B3: SEQ ID NO: 8 (peptide)
peptide: H[Aib]HGTFTSDLSKLK([γGlu-γGlu-Palmitoyl])EEQRQKEFIEWLKAGGPPS[Aib]KPPPK-NH2
B4: SEQ ID NO: 9 (peptide)
peptide: H[Aib]HGTFTSDLSKLK([γGlu-γGlu-Palmitoyl])EEQRQKEFIEWLKA[dA]GPPS[Aib]KPPPK-NH2
modifications: N-terminus assumed
SMILES: CCCCCCCCCCCCCCCC(=O)N[C@@H](CCC(=O)N[C@@H](CCC(=O)NCCCC[C@H](NC(=O)[C@H](CC(C)C)NC(=O)[C@H](CCCCN)NC(=O)[C@H](CO)NC(=O)[C@H](CC(C)C)NC(=O)[C@H](CC(=O)O)NC(=O)[C@H](CO)NC(=O)[C@@H](NC(=O)[C@H](Cc1ccccc1)NC(=O)[C@@H](NC(=O)CNC(=O)[C@H](Cc1c[nH]cn1)NC(=O)C(C)(C)NC(=O)[C@@H](N)Cc1c[nH]cn1)[C@@H](C)O)[C@@H](C)O)C(=O)N[C@@H](CCC(=O)O)C(=O)N[C@@H](CCC(=O)O)C(=O)N[C@@H](CCC(N)=O)C(=O)N[C@@H](CCCNC(=N)N)C(=O)N[C@@H](CCC(N)=O)C(=O)N[C@@H](CCCCN)C(=O)N[C@@H](CCC(=O)O)C(=O)N[C@@H](Cc1ccccc1)C(=O)N[C@H](C(=O)N[C@@H](CCC(=O)O)C(=O)N[C@@H](Cc1c[nH]c2ccccc12)C(=O)N[C@@H](CC(C)C)C(=O)N[C@@H](CCCCN)C(=O)N[C@@H](C)C(=O)N[C@H](C)C(=O)NCC(=O)N1CCC[C@H]1C(=O)N1CCC[C@H]1C(=O)N[C@@H](CO)C(=O)NC(C)(C)C(=O)N[C@@H](CCCCN)C(=O)N1CCC[C@H]1C(=O)N1CCC[C@H]1C(=O)N1CCC[C@H]1C(=O)N[C@@H](CCCCN)C(N)=O)[C@@H](C)CC)C(=O)O)C(=O)O
B5: SEQ ID NO: 11 (peptide)
peptide: H[Aib]HGTFTSDLSKLK([γGlu-γGlu-Palmitoyl])EEQRQ[Aib]EFIEWLKA[dA]GPPS[Aib]KPPPK-NH2
modifications: N-terminus assumed
SMILES: CCCCCCCCCCCCCCCC(=O)N[C@@H](CCC(=O)N[C@@H](CCC(=O)NCCCC[C@H](NC(=O)[C@H](CC(C)C)NC(=O)[C@H](CCCCN)NC(=O)[C@H](CO)NC(=O)[C@H](CC(C)C)NC(=O)[C@H](CC(=O)O)NC(=O)[C@H](CO)NC(=O)[C@@H](NC(=O)[C@H](Cc1ccccc1)NC(=O)[C@@H](NC(=O)CNC(=O)[C@H](Cc1c[nH]cn1)NC(=O)C(C)(C)NC(=O)[C@@H](N)Cc1c[nH]cn1)[C@@H](C)O)[C@@H](C)O)C(=O)N[C@@H](CCC(=O)O)C(=O)N[C@@H](CCC(=O)O)C(=O)N[C@@H](CCC(N)=O)C(=O)N[C@@H](CCCNC(=N)N)C(=O)N[C@@H](CCC(N)=O)C(=O)NC(C)(C)C(=O)N[C@@H](CCC(=O)O)C(=O)N[C@@H](Cc1ccccc1)C(=O)N[C@H](C(=O)N[C@@H](CCC(=O)O)C(=O)N[C@@H](Cc1c[nH]c2ccccc12)C(=O)N[C@@H](CC(C)C)C(=O)N[C@@H](CCCCN)C(=O)N[C@@H](C)C(=O)N[C@H](C)C(=O)NCC(=O)N1CCC[C@H]1C(=O)N1CCC[C@H]1C(=O)N[C@@H](CO)C(=O)NC(C)(C)C(=O)N[C@@H](CCCCN)C(=O)N1CCC[C@H]1C(=O)N1CCC[C@H]1C(=O)N1CCC[C@H]1C(=O)N[C@@H](CCCCN)C(N)=O)[C@@H](C)CC)C(=O)O)C(=O)O
B6: SEQ ID NO: 12 (peptide)
peptide: H[Aib]HGTFTSDLSKLK([γGlu-γGlu-Palmitoyl])EEQRQ[Aib]EFIEWLKAGGHPS[Aib]KPPPK-NH2

How the values were obtained:
Experiment in all cases: cell-based or functional assay
[1] = biological target: human GLP-1 receptor (human, UniProt P43220 24-463)
[2] = biological target: human glucagon receptor (human, UniProt P47871 26-477)
Sequence of human glucagon receptor (P47871 26-477): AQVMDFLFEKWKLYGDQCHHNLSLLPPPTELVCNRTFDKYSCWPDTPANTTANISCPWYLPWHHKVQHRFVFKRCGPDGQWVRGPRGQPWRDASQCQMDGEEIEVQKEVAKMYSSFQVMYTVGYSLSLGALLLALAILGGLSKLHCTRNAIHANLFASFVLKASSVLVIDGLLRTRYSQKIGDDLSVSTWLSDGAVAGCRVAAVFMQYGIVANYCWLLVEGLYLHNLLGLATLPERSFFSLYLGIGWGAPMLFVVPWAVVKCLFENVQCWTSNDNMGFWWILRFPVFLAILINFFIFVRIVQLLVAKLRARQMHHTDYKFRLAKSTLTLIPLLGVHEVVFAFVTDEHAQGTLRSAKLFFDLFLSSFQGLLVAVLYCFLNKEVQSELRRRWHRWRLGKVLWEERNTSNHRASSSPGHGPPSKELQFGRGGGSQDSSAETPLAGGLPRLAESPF

[3] = biological target: T1, human GIP receptor (human, UniProt P48546 22-466)
T1 sequence (looked up): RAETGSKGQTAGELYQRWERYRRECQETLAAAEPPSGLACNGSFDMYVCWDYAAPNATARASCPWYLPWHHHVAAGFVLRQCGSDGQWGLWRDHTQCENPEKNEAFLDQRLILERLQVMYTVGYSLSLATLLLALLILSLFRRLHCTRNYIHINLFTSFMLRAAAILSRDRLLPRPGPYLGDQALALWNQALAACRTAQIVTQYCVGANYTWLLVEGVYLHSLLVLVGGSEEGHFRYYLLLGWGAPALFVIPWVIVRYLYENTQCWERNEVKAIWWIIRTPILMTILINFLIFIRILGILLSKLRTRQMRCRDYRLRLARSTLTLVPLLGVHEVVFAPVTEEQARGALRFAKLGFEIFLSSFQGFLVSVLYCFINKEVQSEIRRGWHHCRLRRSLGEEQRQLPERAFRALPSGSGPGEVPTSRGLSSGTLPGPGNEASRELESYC

Row | Binder | EC50 hGLP-1R (cAMP formation) [1] [pM] | EC50 hGlucagon R (cAMP formation) [2] [pM] | EC50 hGIP R (cAMP formation) [3] [pM]
1 | B1 | 1.7 | 3.2 | 2.6
2 | B2 | 2.3 | 1.6 | 1.1
3 | B3 | 1.3 | 2 | 1.6
4 | B4 | 1.6 | 2.9 | 2.6
5 | B5 | 2.9 | 2.1 | 1.5
6 | B6 | 1.8 | 2 | 1.9
